{"source": "patent US6864054", "target": "endogenous p53 (MRC5.SV40 cells; U-2 OS cells) (UniProt P04637)", "sequence (P04637 whole entry)": "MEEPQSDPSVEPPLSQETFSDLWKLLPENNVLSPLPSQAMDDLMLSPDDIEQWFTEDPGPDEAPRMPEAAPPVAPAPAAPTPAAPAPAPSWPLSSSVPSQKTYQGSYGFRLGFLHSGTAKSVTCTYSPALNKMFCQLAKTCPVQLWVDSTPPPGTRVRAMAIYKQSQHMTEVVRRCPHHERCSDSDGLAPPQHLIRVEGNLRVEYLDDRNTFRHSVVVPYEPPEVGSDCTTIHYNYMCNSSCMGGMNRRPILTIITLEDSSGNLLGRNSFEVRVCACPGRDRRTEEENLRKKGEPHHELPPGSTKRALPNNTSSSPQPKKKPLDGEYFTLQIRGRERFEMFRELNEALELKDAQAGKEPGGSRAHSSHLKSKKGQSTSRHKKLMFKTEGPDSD", "experiment": "cell-based or functional assay", "data": [{"substance": "full-length CBP, P45481 2-2441", "values": [{"measurement": "p53-dependent transcription (PG13CAT reporter, U2-OS cells)", "result": 7, "unit": "fold"}]}]}
